# From the supplement of paper PMC5998384
# Columns and labels:
# HeLa Kyoto [1] = assay: melting temperature (median over replicates), in situ; higher = more thermally stable
# HeLa Kyoto [2] = assay: solubility change mitosis vs G1/S (difference of NP-40 vs SDS log2 ratios) (log2 ratio difference); higher = more soluble in mitosis
# HeLa Kyoto [3] = assay: solubility in G1/S (NP-40 vs SDS abundance) (log2 ratio); higher = more soluble; conditions: cell cycle stage: G1/S
# HeLa Kyoto [4] = assay: thermal stability score vs G1/S (z-score of summed log2 fold changes over temperatures); higher = more thermally stable than in G1/S
# [5] = cell cycle stage: early G1 (4.5 h after nocodazole release)
# 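Throughout, for melting temperature (median over replicates), in situ: HeLa Kyoto cells synchronized by double thymidine or nocodazole block, proteins quantified by TMT10plex mass spectrometry, three independent biological replicates.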
# 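Throughout, for solubility change mitosis vs G1/S (difference of NP-40 vs SDS log2 ratios): synchronized HeLa Kyoto cells (double thymidine block for G1/S, nocodazole release for mitosis), protein amounts in NP-40 versus SDS lysates quantified by mass spectrometry, three biological replicates.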
# 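Throughout, for solubility in G1/S (NP-40 vs SDS abundance): HeLa Kyoto cells arrested at G1/S by double thymidine block, proteins quantified by TMT10plex mass spectrometry in mild NP-40 versus SDS extracts, three biological replicates.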
# 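Throughout, for thermal stability score vs G1/S (z-score of summed log2 fold changes over temperatures): synchronized HeLa Kyoto cells, proteins quantified by TMT10plex mass spectrometry, three biological replicates, mitosis taken 0.5 h after nocodazole release, G1/S directly after double thymidine block.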
# Sequence of XPO4 (chain, as listed by the source): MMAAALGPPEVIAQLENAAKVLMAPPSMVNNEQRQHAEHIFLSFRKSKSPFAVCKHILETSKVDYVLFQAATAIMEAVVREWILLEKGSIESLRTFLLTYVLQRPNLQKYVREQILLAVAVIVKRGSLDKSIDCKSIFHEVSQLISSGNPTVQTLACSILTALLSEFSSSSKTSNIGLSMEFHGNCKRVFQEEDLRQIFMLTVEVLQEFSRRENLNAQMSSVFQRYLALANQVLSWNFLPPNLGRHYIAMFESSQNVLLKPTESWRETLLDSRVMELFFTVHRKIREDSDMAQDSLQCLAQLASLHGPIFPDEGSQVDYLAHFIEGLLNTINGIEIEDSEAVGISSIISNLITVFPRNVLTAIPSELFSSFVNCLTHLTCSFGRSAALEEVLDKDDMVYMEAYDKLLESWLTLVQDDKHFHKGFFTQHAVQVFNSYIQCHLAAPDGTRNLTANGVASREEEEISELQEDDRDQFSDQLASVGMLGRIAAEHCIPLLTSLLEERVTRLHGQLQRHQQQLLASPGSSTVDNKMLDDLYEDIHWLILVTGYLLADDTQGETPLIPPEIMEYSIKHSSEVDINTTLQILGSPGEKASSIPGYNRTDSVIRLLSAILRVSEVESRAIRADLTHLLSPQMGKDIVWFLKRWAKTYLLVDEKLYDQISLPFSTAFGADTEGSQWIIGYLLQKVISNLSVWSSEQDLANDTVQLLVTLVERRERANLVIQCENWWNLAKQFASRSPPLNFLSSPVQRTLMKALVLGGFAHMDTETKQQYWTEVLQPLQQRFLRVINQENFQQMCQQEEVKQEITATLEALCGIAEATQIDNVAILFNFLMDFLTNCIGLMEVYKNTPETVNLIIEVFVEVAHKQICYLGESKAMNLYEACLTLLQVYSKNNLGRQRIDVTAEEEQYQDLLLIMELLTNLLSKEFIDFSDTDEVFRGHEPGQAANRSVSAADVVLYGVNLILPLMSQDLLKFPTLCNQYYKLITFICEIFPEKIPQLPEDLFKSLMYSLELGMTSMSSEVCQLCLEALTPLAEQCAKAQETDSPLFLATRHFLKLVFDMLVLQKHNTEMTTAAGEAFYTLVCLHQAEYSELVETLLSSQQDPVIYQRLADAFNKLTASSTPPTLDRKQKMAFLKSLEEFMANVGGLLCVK
Substance,melting temperature (HeLa Kyoto [1]; cell cycle stage: G1/S) [°C],melting temperature (HeLa Kyoto [1]; cell cycle stage: mitosis) [°C],solubility change mitosis (log2) (HeLa Kyoto [2]),solubility in G1/S (log2) (HeLa Kyoto [3]),thermal stability score (HeLa Kyoto [4]; [5]),thermal stability score (HeLa Kyoto [4]; cell cycle stage: mitosis)
MPAHLLQDDISSSYTTTTTITAPPSRVLQNGGDKLETMPLYLEDDIRPDIKDDIYDPTYKDKEGPSPKVEYVWRNIILMSLLHLGALYGITLIPTCKFYTWLWGVFYYFVSALGITAGAHRLWSHRSYKARLPLRLFLIIANTMAFQNDVYEWARDHRAHHKFSETHADPHNSRRGFFFSHVGWLLVRKHPAVKEKGSTLDLSDLEAEKLVMFQRRYYKPGLLMMCFILPTLVPWYFWGETFQNSVFVATFLRYAVVLNATWLVNSAAHLFGYRPYDKNISPRENILVSLGAVGEGFHNYHHSFPYDYSASEYRWHINFTTFFIDCMAALGLAYDRKKVSKAAILARIKRTGDGNYKSG [SCD],50.5,51.2,-0.151,-0.126,1.76,-0.899
CASC5,47.7,48.3,-0.0741,-0.247,1.3,1.4
MEWGSESAAVRRHRVGVERREGAAAAPPPEREARAQEPLVDGCSGGGRTRKRSPGGSGGASRGAGTGLSEVRAALGLALYLIALRTLVQLSLQQLVLRGAAGHRGEFDALQARDYLEHITSIGPRTTGSPENEILTVHYLLEQIKLIEVQSNSLHKISVDVQRPTGSFSIDFLGGFTSYYDNITNVVVKLEPRDGAQHAVLANCHFDSVANSPGASDDAVSCSVMLEVLRVLSTSSEALHHAVIFLFNGAEENVLQASHGFITQHPWASLIRAFINLEAAGVGGKELVFQTGPENPWLVQAYVSAAKHPFASVVAQEVFQSGIIPSDTDFRIYRDFGNIPGIDLAFIENGYIYHTKYDTADRILTDSIQRAGDNILAVLKHLATSDMLAAASKYRHGNMVFFDVLGLFVIAYPSRIGSIINYMVVMGVVLYLGKKFLQPKHKTGNYKKDFLCGLGITLISWFTSLVTVLIIAVFISLIGQSLSWYNHFYVSVCLYGTATVAKIILIHTLAKRFYYMNASAQYLGEVFFDISLFVHCCFLVTLTYQGLCSAFISAVWVAFPLLTKLCVHKDFKQHGAQGKFIAFYLLGMFIPYLYALYLIWAVFEMFTPILGRSGSEIPPDVVLASILAGCTMILSSYFINFIYLAKSTKKTMLTLTLVCAITFLLVCSGTFFPYSSNPANPKPKRVFLQHMTRTFHDLEGNAVKRDSGIWINGFDYTGISHITPHIPEINDSIRAHCEENAPLCGFPWYLPVHFLIRKNWYLPAPEVSPRNPPHFRLISKEQTPWDSIKLTFEATGPSHMSFYVRAHKGSTLSQWSLGNGTPVTSKGGDYFVFYSHGLQASAWQFWIEVQVSEEHPEGMVTVAIAAHYLSGEDKRSPQLDALKEKFPDWTFPSAWVCTYDLFVF [ERMP1],58.8,56.7,-0.18,-0.0493,-3,-4.39
MLGFITRPPHRFLSLLCPGLRIPQLSVLCAQPRPRAMAISSSSCELPLVAVCQVTSTPDKQQNFKTCAELVREAARLGACLAFLPEAFDFIARDPAETLHLSEPLGGKLLEEYTQLARECGLWLSLGGFHERGQDWEQTQKIYNCHVLLNSKGAVVATYRKTHLCDVEIPGQGPMCESNSTMPGPSLESPVSTPAGKIGLAVCYDMRFPELSLALAQAGAEILTYPSAFGSITGPAHWEVLLRARAIETQCYVVAAAQCGRHHEKRASYGHSMVVDPWGTVVARCSEGPGLCLARIDLNYLRQLRRHLPVFQHRRPDLYGNLGHPLS [NIT1],54.7,55.1,-0.133,0.248,-1.82,-2.71
MYGSARSVGKVEPSSQSPGRSPRLPRSPRLGHRRTNSTGGSSGSSVGGGSGKTLSMENIQSLNAAYATSGPMYLSDHENVGSETPKSTMTLGRSGGRLPYGVRMTAMGSSPNIASSGVASDTIAFGEHHLPPVSMASTVPHSLRQARDNTIMDLQTQLKEVLRENDLLRKDVEVKESKLSSSMNSIKTFWSPELKKERALRKDEASKITIWKEQYRVVQEENQHMQMTIQALQDELRIQRDLNQLFQQDSSSRTGEPCVAELTEENFQRLHAEHERQAKELFLLRKTLEEMELRIETQKQTLNARDESIKKLLEMLQSKGLSAKATEEDHERTRRLAEAEMHVHHLESLLEQKEKENSMLREEMHRRFENAPDSAKTKALQTVIEMKDSKISSMERGLRDLEEEIQMLKSNGALSTEEREEEMKQMEVYRSHSKFMKNKVEQLKEELSSKEAQWEELKKKAAGLQAEIGQVKQELSRKDTELLALQTKLETLTNQFSDSKQHIEVLKESLTAKEQRAAILQTEVDALRLRLEEKETMLNKKTKQIQDMAEEKGTQAGEIHDLKDMLDVKERKVNVLQKKIENLQEQLRDKEKQMSSLKERVKSLQADTTNTDTALTTLEEALAEKERTIERLKEQRDRDEREKQEEIDNYKKDLKDLKEKVSLLQGDLSEKEASLLDLKEHASSLASSGLKKDSRLKTLEIALEQKKEECLKMESQLKKAHEAALEARASPEMSDRIQHLEREITRYKDESSKAQAEVDRLLEILKEVENEKNDKDKKIAELERQVKDQNKKVANLKHKEQVEKKKSAQMLEEARRREDNLNDSSQQLQDSLRKKDDRIEELEEALRESVQITAEREMVLAQEESARTNAEKQVEELLMAMEKVKQELESMKAKLSSTQQSLAEKETHLTNLRAERRKHLEEVLEMKQEALLAAISEKDANIALLELSSSKKKTQEEVAALKREKDRLVQQLKQQTQNRMKLMADNYEDDHFKSSHSNQTNHKPSPDQIIQPLLELDQNRSKLKLYIGHLTTLCHDRDPLILRGLTPPASYNLDDDQAAWENELQKMTRGQLQDELEKGERDNAELQEFANAILQQIADHCPDILEQVVNALEESS [ERC1],48.4,50.1,0.00205,0.626,1.35,1.65
MGCFFSKRRKADKESRPENEEERPKQYSWDQREKVDPKDYMFSGLKDETVGRLPGTVAGQQFLIQDCENCNIYIFDHSATVTIDDCTNCIIFLGPVKGSVFFRNCRDCKCTLACQQFRVRDCRKLEVFLCCATQPIIESSSNIKFGCFQWYYPELAFQFKDAGLSIFNNTWSNIHDFTPVSGELNWSLLPEDAVVQDYVPIPTTEELKAVRVSTEANRSIVPISRGQRQKSSDESCLVVLFAGDYTIANARKLIDEMVGKGFFLVQTKEVSMKAEDAQRVFREKAPDFLPLLNKGPVIALEFNGDGAVEVCQLIVNEIFNGTKMFVSESKETASGDVDSFYNFADIQMGI [RP2],51.6,51.1,-0.158,-0.343,-0.738,-0.982
MELSDANLQTLTEYLKKTLDPDPAIRRPAEKFLESVEGNQNYPLLLLTLLEKSQDNVIKVCASVTFKNYIKRNWRIVEDEPNKICEADRVAIKANIVHLMLSSPEQIQKQLSDAISIIGREDFPQKWPDLLTEMVNRFQSGDFHVINGVLRTAHSLFKRYRHEFKSNELWTEIKLVLDAFALPLTNLFKATIELCSTHANDASALRILFSSLILISKLFYSLNFQDLPEFFEDNMETWMNNFHTLLTLDNKLLQTDDEEEAGLLELLKSQICDNAALYAQKYDEEFQRYLPRFVTAIWNLLVTTGQEVKYDLLVSNAIQFLASVCERPHYKNLFEDQNTLTSICEKVIVPNMEFRAADEEAFEDNSEEYIRRDLEGSDIDTRRRAACDLVRGLCKFFEGPVTGIFSGYVNSMLQEYAKNPSVNWKHKDAAIYLVTSLASKAQTQKHGITQANELVNLTEFFVNHILPDLKSANVNEFPVLKADGIKYIMIFRNQVPKEHLLVSIPLLINHLQAESIVVHTYAAHALERLFTMRGPNNATLFTAAEIAPFVEILLTNLFKALTLPGSSENEYIMKAIMRSFSLLQEAIIPYIPTLITQLTQKLLAVSKNPSKPHFNHYMFEAICLSIRITCKANPAAVVNFEEALFLVFTEILQNDVQEFIPYVFQVMSLLLETHKNDIPSSYMALFPHLLQPVLWERTGNIPALVRLLQAFLERGSNTIASAAADKIPGLLGVFQKLIASKANDHQGFYLLNSIIEHMPPESVDQYRKQIFILLFQRLQNSKTTKFIKSFLVFINLYCIKYGALALQEIFDGIQPKMFGMVLEKIIIPEIQKVSGNVEKKICAVGITKLLTECPPMMDTEYTKLWTPLLQSLIGLFELPEDDTIPDEEHFIDIEDTPGYQTAFSQLAFAGKKEHDPVGQMVNNPKIHLAQSLHKLSTACPGRVPSMVSTSLNAEALQYLQGYLQAASVTLL [CSE1L],50.4,49.5,-0.225,-0.0863,1.44,2.55
CEP170,50.3,51.5,0.0625,-0.112,0.653,2.64
XPO4,52.4,52,-0.113,-0.0631,0.898,0.432
MAAAAPVAADDDERRRRPGAALEDSRSQEGANGEAESGELSRLRAELAGALAEMETMKAVAEVSESTKAEAVAAVQRQCQEEVASLQAILKDSISSYEAQITALKQERQQQQQDCEEKERELGRLKQLLSRAYPLDSLEKQMEKAHEDSEKLREIVLPMEKEIEELKAKLLRAEELIQEIQRRPRHAPSLHGSTELLPLSRDPSPPLEPLEELSGDGGPAAEAFAHNCDDSASISSFSLGGGVGSSSSLPQSRQGLSPEQEETASLVSTGTLVPEGIYLPPPGYQLVPDTQWEQLQTEGRQLQKDLESVSRERDELQEGLRRSNEDCAKQMQVLLAQVQNSEQLLRTLQGTVSQAQERVQLQMAELVTTHKCLHHEVKRLNEENQGLRAEQLPSSAPQGSQQEQGEEESLPSSVPELQQLLCCTRQEARARLQAQEHGAERLRIEIVTLREALEEETVARASLEGQLRVQREETEVLEASLCSLRTEMERVQQEQSKAQLPDLLSEQRAKVLRLQAELETSEQVQRDFVRLSQALQVRLERIRQAETLEQVRSIMDEAPLTDVRDIKDT [RABEP2],49,50.6,0.304,0.504,-0.553,0.297
XPNPEP3,53.4,53.3,-0.146,0.275,-0.645,-2.12
RALGAPA1,50.2,50.8,-0.16,-0.0986,-0.328,-0.518
MAGQGLPLHVATLLTGLLECLGFAGVLFGWPSLVFVFKNEDYFKDLCGPDAGPIGNATGQADCKAQDERFSLIFTLGSFMNNFMTFPTGYIFDRFKTTVARLIAIFFYTTATLIIAFTSAGSAVLLFLAMPMLTIGGILFLITNLQIGNLFGQHRSTIITLYNGAFDSSSAVFLIIKLLYEKGISLRASFIFISVCSTWHVARTFLLMPRGHIPYPLPPNYSYGLCPGNGTTKEEKETAEHENRELQSKEFLSAKEETPGAGQKQELRSFWSYAFSRRFAWHLVWLSVIQLWHYLFIGTLNSLLTNMAGGDMARVSTYTNAFAFTQFGVLCAPWNGLLMDRLKQKYQKEARKTGSSTLAVALCSTVPSLALTSLLCLGFALCASVPILPLQYLTFILQVISRSFLYGSNAAFLTLAFPSEHFGKLFGLVMALSAVVSLLQFPIFTLIKGSLQNDPFYVNVMFMLAILLTFFHPFLVYRECRTWKESPSAIA [SLC43A3],58.3,58.2,-0.114,0.205,-0.857,-2.36
